From patent US5156956A, “Transgultaminase” (Ajinomoto Co., Inc., priority 1987, dated 1992)

Assays:
Temperature stability = assay type: physicochemical; conditions: pH 7 for 10 minutes
Optimum pH = assay type: biochemical; conditions: 37° C. for 10 minutes
pH stability = assay type: physicochemical; conditions: treatment at 37° C. for 10 minutes
[1] = Activity of the enzymes without added Ca2+; assay type: biochemical; conditions: no CaCl2 added (Table 5)
Experimental: Measurement of the activity of BTGase is carried out by performing a reaction using benzyloxycarbonyl-L-glutaminyl glycine and hydroxylamine as substrates in the absence of Ca^2+, forming an iron complex with the resulting hydroxamic acid in the presence of trichloroacetic acid, measuring absorption at 525 nm and determining the amount of hydroxamic acid by a calibration curve to calculate the activity. The BTGase activity is measured by the method described below, unless otherwise indicated.

B1: BTG-1: transglutaminase of Streptoverticillium mobaraense IFO 13819 (protein, UniProt P81453 77-407, looked up)
Protein-glutamine …: DSDDRVTPPAEPLDRMPDPYRPSYGRAETVVNNYIRKWQQVYSHRDGRKQQMTEEQREWLSYGCVGVTWVNSGQYPTNRLAFASFDEDRFKNELKNGRPRSGETRAEFEGRVAKESFDEEKGFQRAREVASVMNRALENAHDESAYLDNLKKELANGNDALRNEDARSPFYSALRNTPSFKERNGGNHDPSRMKAVIYSKHFWSGQDRSSSADKRKYGDPDAFRPAPGTGLVDMSRDRNIPRSPTSPGEGFVNFDYGWFGAQTEADADKTVWTHGNHYHAPNGSLGAMHVYESKFRNWSEGYSDFDRGAYVITFIPKSWNTAPDKVKQGWP
Temperature stability (%), 40° C. residual rate (Temperature stability; 40° C.): 88% | Temperature stability (%), 50° C. residual rate (Temperature stability; 50° C.): 74% | Optimum pH (Optimum pH): 6-7 | pH Stability (stable pH range) (pH stability): 5-9 | Activity (%) of the enzyme, metal ion: None [1]: 99%
